These sequences were tested on Escherichia coli TOP10 (assay: shrunken log2 fold change of peptide-encoding DNA abundance (4.5 h post-induction vs induction); higher = less antimicrobial activity (less host growth inhibition)). Conditions: time post-induction: 4.5 h; library: site-saturation at positions 5, 18, 19, 20.
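Note: peptides expressed intracellularly from a pBAD plasmid library in pooled LB shake-flask culture, induced with 0.3% L-arabinose, DNA abundance read by NGS, three biological replicates, DESeq2 with apeglm shrinkage.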

Row | Sequence | shrunken log2 fold change
1 | RRIRIRPPRLPRPRPRPEAMPRP | 0.124
2 | RRIRIRPPRLPRPRPRPEAVPRP | 0.0843
3 | RRIRIRPPRLPRPRPRPECFPRP | 0.042
4 | RRIRIRPPRLPRPRPRPEDKPRP | -0.401
5 | RRIRIRPPRLPRPRPRPEERPRP | 0.0136
6 | RRIRIRPPRLPRPRPRPEFDPRP | 0.0326
7 | RRIRIRPPRLPRPRPRPEFYPRP | -0.333
8 | RRIRIRPPRLPRPRPRPEHPPRP | -0.182
9 | RRIRIRPPRLPRPRPRPEHWPRP | 0.168
10 | RRIRIRPPRLPRPRPRPEIAPRP | -0.141
11 | RRIRIRPPRLPRPRPRPEIIPRP | -0.00386
12 | RRIRIRPPRLPRPRPRPEIMPRP | -0.183
13 | RRIRIRPPRLPRPRPRPEISPRP | -0.481
14 | RRIRIRPPRLPRPRPRPEKIPRP | -0.0431
15 | RRIRIRPPRLPRPRPRPELDPRP | 0.0332
16 | RRIRIRPPRLPRPRPRPELIPRP | 0.0381
17 | RRIRIRPPRLPRPRPRPEMYPRP | -0.174
18 | RRIRIRPPRLPRPRPRPENIPRP | -0.106
19 | RRIRIRPPRLPRPRPRPEPAPRP | 0.326
20 | RRIRIRPPRLPRPRPRPEPQPRP | -0.0904
21 | RRIRIRPPRLPRPRPRPEPRPRP | 0.563
22 | RRIRIRPPRLPRPRPRPEQGPRP | 0.0755
23 | RRIRIRPPRLPRPRPRPEQHPRP | -0.0723
24 | RRIRIRPPRLPRPRPRPEQPPRP | 0.307
25 | RRIRIRPPRLPRPRPRPEQVPRP | 0.0205

Row | Sequence | shrunken log2 fold change
26 | RRIRIRPPRLPRPRPRPERCPRP | 0.296
27 | RRIRIRPPRLPRPRPRPEVFPRP | -0.202
28 | RRIRIRPPRLPRPRPRPEVNPRP | -0.294
29 | RRIRIRPPRLPRPRPRPEWIPRP | 0.0384
30 | RRIRIRPPRLPRPRPRPEWQPRP | 0.118
31 | RRIRIRPPRLPRPRPRPEYDPRP | 0.0262
32 | RRIRIRPPRLPRPRPRPFAGPRP | 0.0391
33 | RRIRIRPPRLPRPRPRPFAQPRP | -0.108
34 | RRIRIRPPRLPRPRPRPFCAPRP | -0.088
35 | RRIRIRPPRLPRPRPRPFFIPRP | -0.641
36 | RRIRIRPPRLPRPRPRPFFSPRP | -0.799
37 | RRIRIRPPRLPRPRPRPFGAPRP | -0.143
38 | RRIRIRPPRLPRPRPRPFHAPRP | -0.388
39 | RRIRIRPPRLPRPRPRPFHPPRP | -0.111
40 | RRIRIRPPRLPRPRPRPFIVPRP | -0.105
41 | RRIRIRPPRLPRPRPRPFKIPRP | -0.144
42 | RRIRIRPPRLPRPRPRPFKMPRP | -0.568
43 | RRIRIRPPRLPRPRPRPFMDPRP | -1.07
44 | RRIRIRPPRLPRPRPRPFPCPRP | -0.0282
45 | RRIRIRPPRLPRPRPRPFSDPRP | -0.227
46 | RRIRIRPPRLPRPRPRPFTQPRP | -0.71
47 | RRIRIRPPRLPRPRPRPFTYPRP | -0.00992
48 | RRIRIRPPRLPRPRPRPFWFPRP | -0.684
49 | RRIRIRPPRLPRPRPRPFWQPRP | -0.31
50 | RRIRIRPPRLPRPRPRPFYYPRP | -0.667

Row | Sequence | shrunken log2 fold change
51 | RRIRIRPPRLPRPRPRPGAPPRP | 0.416
52 | RRIRIRPPRLPRPRPRPGCRPRP | 0.0314
53 | RRIRIRPPRLPRPRPRPGCVPRP | -0.00757
54 | RRIRIRPPRLPRPRPRPGDTPRP | -0.372
55 | RRIRIRPPRLPRPRPRPGDYPRP | -0.0189
56 | RRIRIRPPRLPRPRPRPGECPRP | -0.143
57 | RRIRIRPPRLPRPRPRPGEQPRP | -0.0156
58 | RRIRIRPPRLPRPRPRPGFDPRP | 0.027
59 | RRIRIRPPRLPRPRPRPGFEPRP | 3.71
60 | RRIRIRPPRLPRPRPRPGFTPRP | -0.329
61 | RRIRIRPPRLPRPRPRPGFVPRP | 0.108
62 | RRIRIRPPRLPRPRPRPGGSPRP | -0.0491
63 | RRIRIRPPRLPRPRPRPGKSPRP | -0.0715
64 | RRIRIRPPRLPRPRPRPGLCPRP | 0.108
65 | RRIRIRPPRLPRPRPRPGLQPRP | 0.0696
66 | RRIRIRPPRLPRPRPRPGMSPRP | -0.15
67 | RRIRIRPPRLPRPRPRPGMWPRP | 0.0422
68 | RRIRIRPPRLPRPRPRPGMYPRP | 0.123
69 | RRIRIRPPRLPRPRPRPGNVPRP | -0.0399
70 | RRIRIRPPRLPRPRPRPGPNPRP | -0.113
71 | RRIRIRPPRLPRPRPRPGQGPRP | -0.257
72 | RRIRIRPPRLPRPRPRPGRQPRP | 0.172
73 | RRIRIRPPRLPRPRPRPGSRPRP | -0.0379
74 | RRIRIRPPRLPRPRPRPGSSPRP | -0.486
75 | RRIRIRPPRLPRPRPRPGVAPRP | 0.276

Row | Sequence | shrunken log2 fold change
76 | RRIRIRPPRLPRPRPRPGVHPRP | 0.241
77 | RRIRIRPPRLPRPRPRPGWGPRP | 0.308
78 | RRIRIRPPRLPRPRPRPGYAPRP | -0.192
79 | RRIRIRPPRLPRPRPRPGYEPRP | -0.237
80 | RRIRIRPPRLPRPRPRPGYMPRP | -0.442
81 | RRIRIRPPRLPRPRPRPGYRPRP | -0.217
82 | RRIRIRPPRLPRPRPRPHAKPRP | -0.348
83 | RRIRIRPPRLPRPRPRPHALPRP | -0.127
84 | RRIRIRPPRLPRPRPRPHCSPRP | -1.21
85 | RRIRIRPPRLPRPRPRPHCWPRP | -0.27
86 | RRIRIRPPRLPRPRPRPHDIPRP | -0.146
87 | RRIRIRPPRLPRPRPRPHDTPRP | -0.548
88 | RRIRIRPPRLPRPRPRPHDYPRP | -0.262
89 | RRIRIRPPRLPRPRPRPHEEPRP | -0.031
90 | RRIRIRPPRLPRPRPRPHEVPRP | -0.0624
91 | RRIRIRPPRLPRPRPRPHHDPRP | -0.515
92 | RRIRIRPPRLPRPRPRPHHWPRP | -0.18
93 | RRIRIRPPRLPRPRPRPHIDPRP | -0.0031
94 | RRIRIRPPRLPRPRPRPHIWPRP | -0.582
95 | RRIRIRPPRLPRPRPRPHKEPRP | 0.0692
96 | RRIRIRPPRLPRPRPRPHMAPRP | -0.367
97 | RRIRIRPPRLPRPRPRPHMHPRP | -1.05
98 | RRIRIRPPRLPRPRPRPHMKPRP | -0.809
99 | RRIRIRPPRLPRPRPRPHMYPRP | -0.485
100 | RRIRIRPPRLPRPRPRPHNAPRP | -0.549

Row | Sequence | shrunken log2 fold change
101 | RRIRIRPPRLPRPRPRPHPGPRP | -0.571
102 | RRIRIRPPRLPRPRPRPHRIPRP | 0.0122
103 | RRIRIRPPRLPRPRPRPHVLPRP | -0.198
104 | RRIRIRPPRLPRPRPRPIADPRP | -0.0882
105 | RRIRIRPPRLPRPRPRPIDCPRP | -0.145
106 | RRIRIRPPRLPRPRPRPIDLPRP | -0.179
107 | RRIRIRPPRLPRPRPRPIEIPRP | -0.437
108 | RRIRIRPPRLPRPRPRPIEYPRP | -0.0602
109 | RRIRIRPPRLPRPRPRPIFCPRP | -0.0695
110 | RRIRIRPPRLPRPRPRPIGIPRP | -0.0608
111 | RRIRIRPPRLPRPRPRPIHMPRP | -0.379
112 | RRIRIRPPRLPRPRPRPIIPPRP | -0.072
113 | RRIRIRPPRLPRPRPRPILPPRP | 0.0798
114 | RRIRIRPPRLPRPRPRPILVPRP | 0.0273
115 | RRIRIRPPRLPRPRPRPIMGPRP | -0.08
116 | RRIRIRPPRLPRPRPRPINGPRP | -0.383
117 | RRIRIRPPRLPRPRPRPIPAPRP | -0.0353
118 | RRIRIRPPRLPRPRPRPIPDPRP | -1.08
119 | RRIRIRPPRLPRPRPRPIRIPRP | 0.0736
120 | RRIRIRPPRLPRPRPRPIRKPRP | -0.0303
121 | RRIRIRPPRLPRPRPRPIRLPRP | -0.41
122 | RRIRIRPPRLPRPRPRPISQPRP | -0.961
123 | RRIRIRPPRLPRPRPRPITAPRP | -0.592
124 | RRIRIRPPRLPRPRPRPITFPRP | -1.1
125 | RRIRIRPPRLPRPRPRPITPPRP | -0.421

Row | Sequence | shrunken log2 fold change
126 | RRIRIRPPRLPRPRPRPIVDPRP | -0.0819
127 | RRIRIRPPRLPRPRPRPIVFPRP | -0.144
128 | RRIRIRPPRLPRPRPRPIVYPRP | -0.383
129 | RRIRIRPPRLPRPRPRPIWRPRP | 0.529
130 | RRIRIRPPRLPRPRPRPKAAPRP | 0.147
131 | RRIRIRPPRLPRPRPRPKAMPRP | -0.161
132 | RRIRIRPPRLPRPRPRPKASPRP | -0.0616
133 | RRIRIRPPRLPRPRPRPKDIPRP | -1.25
134 | RRIRIRPPRLPRPRPRPKDRPRP | -0.409
135 | RRIRIRPPRLPRPRPRPKFGPRP | 0.0227
136 | RRIRIRPPRLPRPRPRPKFRPRP | -0.0682
137 | RRIRIRPPRLPRPRPRPKGEPRP | 0.00835
138 | RRIRIRPPRLPRPRPRPKGYPRP | -0.0143
139 | RRIRIRPPRLPRPRPRPKHLPRP | -0.137
140 | RRIRIRPPRLPRPRPRPKHMPRP | -0.451
141 | RRIRIRPPRLPRPRPRPKHTPRP | -0.329
142 | RRIRIRPPRLPRPRPRPKIIPRP | -0.468
143 | RRIRIRPPRLPRPRPRPKKDPRP | -0.602
144 | RRIRIRPPRLPRPRPRPKKHPRP | -0.21
145 | RRIRIRPPRLPRPRPRPKLHPRP | -0.0109
146 | RRIRIRPPRLPRPRPRPKLTPRP | 0.0656
147 | RRIRIRPPRLPRPRPRPKMTPRP | 0.123
148 | RRIRIRPPRLPRPRPRPKNCPRP | -0.164
149 | RRIRIRPPRLPRPRPRPKNQPRP | -0.359
150 | RRIRIRPPRLPRPRPRPKPKPRP | 0.161
